From patent publication US20110008345A1 (GlaxoSmithKline, published 2011)
Changes are numbered by the printed parent chain. Values belong to the binder of their own block, whether it stands above or below them.

Experiments:
[1] = biological target: T1, recombinant E. coli-expressed human IL-13 (human, UniProt P35225 35-146); experiment: ELISA, IL-13 binding to IL13Ralpha2/Fc
T1 construct: made and purified at GSK; also called Interleukin-13; rhIL-13

[2] = biological target: T1, recombinant E. coli-expressed human …; experiment: cell-based or functional assay
[3] = biological target: T2, recombinant E. coli-expressed cynomolgus IL-4 (cynomolgus, UniProt P79339 25-153); experiment: cell-based or functional assay
T2 sequence (looked up): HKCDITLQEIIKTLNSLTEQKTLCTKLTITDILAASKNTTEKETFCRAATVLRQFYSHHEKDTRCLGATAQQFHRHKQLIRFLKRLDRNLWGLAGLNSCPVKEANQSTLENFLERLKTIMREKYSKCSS

[4] = biological target: T3, recombinant E. coli-expressed cynomolgus IL-13 (cynomolgus, UniProt Q0PW92 21-132); experiment: cell-based or functional assay
[5] = biological target: T4, recombinant E. coli-expressed human IL-4 (human, UniProt P05112 25-153); experiment: cell-based or functional assay
T4 sequence: T2 sequence (looked up) with K26E, I29V, L33F

[6] = biological target: T2, recombinant E. coli-expressed …; experiment: SPR
[7] = biological target: T3, recombinant E. coli-expressed …; experiment: SPR
[8] = biological target: T1, recombinant E. coli-expressed human …; experiment: SPR exp 2
[9] = biological target: T4, recombinant E. coli-expressed human IL-4; experiment: SPR exp 2
[10] = biological target: T1, recombinant E. coli-expressed human …; experiment: SPR exp 1
[11] = biological target: T1, recombinant E. coli-expressed human …; experiment: ELISA, supernatant
[12] = biological target: T4, recombinant E. coli-expressed human IL-4; experiment: ELISA, supernatant
recombinant human VEGF = biological target: T5, recombinant human VEGF (human, UniProt P15692-4 27-191); experiment: ELISA
T5 construct: also called VEGF165; hVEGF165

[13] = biological target: T6, Recombinant Human HGF R (c-MET)/Fc Chimera (human, UniProt P08581 25-932); experiment: ELISA
T6 construct: bought; also called HGF receptor
T6 sequence (P08581 25-932 limits assumed, change not shown): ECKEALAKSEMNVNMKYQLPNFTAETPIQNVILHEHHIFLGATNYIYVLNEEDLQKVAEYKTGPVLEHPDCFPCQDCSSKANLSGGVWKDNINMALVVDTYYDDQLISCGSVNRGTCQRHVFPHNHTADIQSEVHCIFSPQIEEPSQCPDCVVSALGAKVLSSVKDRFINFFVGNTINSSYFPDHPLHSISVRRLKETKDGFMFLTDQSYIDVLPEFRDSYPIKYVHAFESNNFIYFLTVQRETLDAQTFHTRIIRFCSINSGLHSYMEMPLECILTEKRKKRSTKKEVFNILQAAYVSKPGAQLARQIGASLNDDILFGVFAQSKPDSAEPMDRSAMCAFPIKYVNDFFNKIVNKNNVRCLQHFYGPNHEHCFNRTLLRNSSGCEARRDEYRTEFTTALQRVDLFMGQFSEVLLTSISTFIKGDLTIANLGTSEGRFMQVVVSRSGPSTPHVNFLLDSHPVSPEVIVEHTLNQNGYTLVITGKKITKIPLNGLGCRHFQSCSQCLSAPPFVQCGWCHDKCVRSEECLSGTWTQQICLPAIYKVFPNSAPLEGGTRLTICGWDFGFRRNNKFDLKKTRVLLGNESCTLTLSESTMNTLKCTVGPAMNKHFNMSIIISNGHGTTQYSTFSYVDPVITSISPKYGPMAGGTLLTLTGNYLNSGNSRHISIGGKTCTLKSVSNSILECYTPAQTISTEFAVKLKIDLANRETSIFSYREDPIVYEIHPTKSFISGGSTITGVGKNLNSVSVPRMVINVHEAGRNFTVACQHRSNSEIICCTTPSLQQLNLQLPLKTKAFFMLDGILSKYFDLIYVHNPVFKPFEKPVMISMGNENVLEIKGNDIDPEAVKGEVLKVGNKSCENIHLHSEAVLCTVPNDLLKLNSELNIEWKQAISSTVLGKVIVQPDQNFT

- IC50 [1]: 7.41 nM
- Mean ND50 (TF-1) [2]: 2.11 nM
- Mean ND50 (TF-1) [3]: 1.36 nM
- Mean ND50 (TF-1) [4]: 47.9 nM
- Mean ND50 (TF-1) [5]: 3.02 nM
- Kd [6]: 0.029 nM
- koff [6]: 5.3e-05 s⁻¹
- kon [6]: 1.83e+06 M⁻¹ s⁻¹
- Kd [7]: 26.7 nM
- koff [7]: 0.0129 s⁻¹
- kon [7]: 483000 M⁻¹ s⁻¹
- Kd [8]: 0.305 nM
- Kd [9]: 0.011 nM
- Kd [10]: 0.268 nM
B1: PascoH-TVAAPS-474 GS removed (bispecific antibody, human IgG1, kappa)
heavy: not shown
light: DIVLTQSPSSLSASVGDRVTITCKASQSVDYDGDSYMNWYQQKPGKAPKLLIYAASNLESGIPSRFSGSGSGTDFTFTISSLQPEDIATYYCQQSNEDPPTFGQGTKVEIKRTVAAPSVFIFPPSDEQLKSGTASVVCLLNNFYPREAKVQWKVDNALQSGNSQESVTEQDSKDSTYSLSSTLTLSKADYEKHKVYACEVTHQGLSSPVTKSFNRGEC

- binding result [11]: binds
- binding result [12]: binds
B2: BPC1617 (bispecific antibody, human IgG2, kappa)
heavy: QVTLRESGPALVKPTQTLTLTCTFSGFSLSTSGMGVSWIRQPPGKGLEWLAHIYWDDDKRYNPSLKSRLTISKDTSRNQVVLTMTNMDPVDTATYYCARRETVFYWYFDVWGRGTLVTVSSASTKGPSVFPLAPCSRSTSESTAALGCLVKDYFPEPVTVSWNSGALTSGVHTFPAVLQSSGLYSLSSVVTVPSSNFGTQTYTCNVDHKPSNTKVDKTVERKCCVECPPCPAPPVAGPSVFLFPPKPKDTLMISRTPEVTCVVVDVSHEDPEVQFNWYVDGVEVHNAKTKPREEQFNSTFRVVSVLTVVHQDWLNGKEYKCKVSNKGLPAPIEKTISKTKGQPREPQVYTLPPSREEMTKNQVSLTCLVKGFYPSDIAVEWESNGQPENNYKTTPPMLDSDGSFFLYSKLTVDKSRWQQGNVFSCSVMHEALHNHYTQKSLSLSPGKGSGVQLLESGGGLVQPGGSLRLSCAASGFTFAWYDMGWVRQAPGKGLEWVSSIDWHGEVTYYADSVKGRFTISRDNSKNTLYLQMNSLRAEDTAVYYCATAEDEPGYDYWGQGTLVTVSS
light: B1 light

- binding result [11]: binds
- binding result [12]: binds
B3: BPC1618 (bispecific antibody, human IgG4, kappa)
heavy: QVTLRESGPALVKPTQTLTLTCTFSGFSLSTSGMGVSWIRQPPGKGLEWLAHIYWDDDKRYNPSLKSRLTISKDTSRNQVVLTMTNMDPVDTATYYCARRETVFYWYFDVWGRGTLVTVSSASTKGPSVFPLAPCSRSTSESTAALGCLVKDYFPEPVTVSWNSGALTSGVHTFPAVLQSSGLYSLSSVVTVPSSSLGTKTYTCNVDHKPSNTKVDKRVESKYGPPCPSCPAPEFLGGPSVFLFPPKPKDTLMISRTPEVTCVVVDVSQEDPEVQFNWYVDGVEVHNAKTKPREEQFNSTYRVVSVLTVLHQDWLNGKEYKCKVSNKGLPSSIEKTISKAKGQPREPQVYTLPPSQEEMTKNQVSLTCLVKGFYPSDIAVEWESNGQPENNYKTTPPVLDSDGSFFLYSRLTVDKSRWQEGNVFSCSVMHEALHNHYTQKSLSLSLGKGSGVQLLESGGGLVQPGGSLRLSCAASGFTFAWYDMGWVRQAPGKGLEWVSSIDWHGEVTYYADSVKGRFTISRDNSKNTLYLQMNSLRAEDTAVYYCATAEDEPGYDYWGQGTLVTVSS
light: B1 light

- binding result [11]: binds
- binding result [12]: binds
B4: BPC1619 (bispecific antibody, human IgG4 S228P, kappa)
heavy: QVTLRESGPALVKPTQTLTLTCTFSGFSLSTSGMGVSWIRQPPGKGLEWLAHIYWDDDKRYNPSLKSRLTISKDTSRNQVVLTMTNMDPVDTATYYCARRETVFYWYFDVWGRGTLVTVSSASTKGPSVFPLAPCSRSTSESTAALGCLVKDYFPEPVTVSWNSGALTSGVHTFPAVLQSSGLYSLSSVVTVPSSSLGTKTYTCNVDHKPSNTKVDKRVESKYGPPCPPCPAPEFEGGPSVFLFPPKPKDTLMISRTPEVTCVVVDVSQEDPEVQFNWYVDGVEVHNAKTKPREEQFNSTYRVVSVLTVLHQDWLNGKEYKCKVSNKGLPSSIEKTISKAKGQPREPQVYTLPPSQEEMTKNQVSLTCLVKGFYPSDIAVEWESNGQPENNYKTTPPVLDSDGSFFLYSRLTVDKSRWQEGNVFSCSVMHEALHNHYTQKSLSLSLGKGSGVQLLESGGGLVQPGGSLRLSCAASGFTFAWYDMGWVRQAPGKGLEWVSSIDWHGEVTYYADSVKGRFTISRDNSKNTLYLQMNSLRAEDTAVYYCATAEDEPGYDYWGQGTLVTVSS
light: B1 light

- binding result (recombinant human VEGF): no binding
- binding result [13]: binds
B5: BPC1020 (antibody, V domains shown)
VH: EVQLVESGGGLVQPGGSLRLSCAASGYTFTSYWLHWVRQAPGKGLEWVGMIDPSNSDTRFNPNFKDRFTISADTSKNTAYLQMNSLRAEDTAVYYCATYRSYVTPLDYWGQGTLVTVSS
VL: DIQMTQSPSSLSASVGDRVTITCKSSQSLLYTSSQKNYLAWYQQKPGKAPKLLIYWASTRESGVPSRFSGSGSGTDFTLTISSLQPEDFATYYCQQYYAYPWTFGQGTKVEIKR
